These results are taken from patent US10005846 (LIFEARC, dated 2018).

Assay [1] concerns the target T1, human transglutaminase type 2 (TG2) (human, UniProt P21980 1-687).
T1 sequence: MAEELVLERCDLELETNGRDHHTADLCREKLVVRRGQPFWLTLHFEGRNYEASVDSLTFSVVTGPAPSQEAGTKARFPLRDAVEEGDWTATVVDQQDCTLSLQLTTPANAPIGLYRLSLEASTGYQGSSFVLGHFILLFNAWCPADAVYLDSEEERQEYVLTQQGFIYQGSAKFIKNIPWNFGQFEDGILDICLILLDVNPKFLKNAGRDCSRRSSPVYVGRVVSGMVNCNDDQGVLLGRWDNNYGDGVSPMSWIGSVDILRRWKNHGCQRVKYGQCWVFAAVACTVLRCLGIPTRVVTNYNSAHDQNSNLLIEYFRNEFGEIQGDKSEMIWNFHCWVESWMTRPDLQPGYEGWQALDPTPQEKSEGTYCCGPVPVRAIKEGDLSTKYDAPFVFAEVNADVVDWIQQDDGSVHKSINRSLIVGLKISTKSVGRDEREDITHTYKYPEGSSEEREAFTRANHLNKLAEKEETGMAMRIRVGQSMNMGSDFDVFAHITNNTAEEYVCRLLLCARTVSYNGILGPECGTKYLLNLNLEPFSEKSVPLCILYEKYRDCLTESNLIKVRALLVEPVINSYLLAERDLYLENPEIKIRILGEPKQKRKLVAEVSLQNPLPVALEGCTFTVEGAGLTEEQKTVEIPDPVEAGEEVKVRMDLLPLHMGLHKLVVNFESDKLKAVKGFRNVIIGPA
Kind of assay: cell-based or functional assay.

The target in assay [2] is T2, TG13.
T2 construct: also called Factor XIIIa
T2 chain: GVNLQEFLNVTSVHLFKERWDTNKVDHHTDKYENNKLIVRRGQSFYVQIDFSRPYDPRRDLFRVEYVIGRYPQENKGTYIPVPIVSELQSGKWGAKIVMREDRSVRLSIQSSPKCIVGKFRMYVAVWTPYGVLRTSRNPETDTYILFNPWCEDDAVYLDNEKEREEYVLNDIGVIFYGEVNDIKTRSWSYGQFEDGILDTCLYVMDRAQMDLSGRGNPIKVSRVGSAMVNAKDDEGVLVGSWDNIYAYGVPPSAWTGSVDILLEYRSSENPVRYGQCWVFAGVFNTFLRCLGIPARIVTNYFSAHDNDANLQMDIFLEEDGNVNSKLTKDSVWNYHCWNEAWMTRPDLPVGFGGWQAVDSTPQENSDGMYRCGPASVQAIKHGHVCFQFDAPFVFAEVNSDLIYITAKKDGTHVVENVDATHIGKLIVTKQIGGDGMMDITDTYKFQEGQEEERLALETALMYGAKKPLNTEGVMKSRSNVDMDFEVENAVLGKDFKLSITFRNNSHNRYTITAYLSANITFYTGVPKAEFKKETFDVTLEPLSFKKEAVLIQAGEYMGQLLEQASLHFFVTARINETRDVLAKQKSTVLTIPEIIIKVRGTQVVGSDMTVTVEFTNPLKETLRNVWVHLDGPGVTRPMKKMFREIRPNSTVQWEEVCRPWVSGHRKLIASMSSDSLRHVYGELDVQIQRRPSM
Kind of assay: ELISA, hybridoma conditioned medium, plates coated with recombinant TG (100 ng/well) [panel A]. On the procedure: Conditioned medium or purified IgG were tested for reactivity to transglutaminase family members. The ability of each to bind to each transglutaminase (TG1, TG2, TG3, TG5, TG7 and Factor XIIIa; all Zedira) was determined using a plate binding assay. Microtiter plates (Costar, Cambridge, UK) were coated with recombinant TG (Zedira, Darmstadt, Germany) in 50 μl of 0.1 M bicarbonate/carbonate buffer (pH 9.6) overnight at 4° C. Plates were blocked for 2 h at 37° C. with 200 μl PBS containing 3% w/v BSA. Plates were washed three times with PBS containing 0.05% Tween 20 (washing buffer) and 100 μl of diluted conditioned medium (dilution 1:5 to 1:20) or purified anti-TG2 catalytic core mAbs was added. Plates were incubated for a further 1 h at room temperature. The washing step was repeated and anti-mouse gamma chain-horseradish peroxidase (1:5000) in PBS containing 0.05% Tween 20 (v:v) and 1% BSA (w:v) (Sigma, Poole UK) was added for 1 h. […] The reaction was stopped by adding 25 μl of 0.1 M H_2SO_4 and the absorbance at 450 nm was determined.
In general terms: An ELISA detects its analyte on a solid surface through an enzyme-linked reagent.

The target of assay [3] is T3, mouse TG2 (mouse, UniProt P21981 1-686, limits assumed).
T3 sequence: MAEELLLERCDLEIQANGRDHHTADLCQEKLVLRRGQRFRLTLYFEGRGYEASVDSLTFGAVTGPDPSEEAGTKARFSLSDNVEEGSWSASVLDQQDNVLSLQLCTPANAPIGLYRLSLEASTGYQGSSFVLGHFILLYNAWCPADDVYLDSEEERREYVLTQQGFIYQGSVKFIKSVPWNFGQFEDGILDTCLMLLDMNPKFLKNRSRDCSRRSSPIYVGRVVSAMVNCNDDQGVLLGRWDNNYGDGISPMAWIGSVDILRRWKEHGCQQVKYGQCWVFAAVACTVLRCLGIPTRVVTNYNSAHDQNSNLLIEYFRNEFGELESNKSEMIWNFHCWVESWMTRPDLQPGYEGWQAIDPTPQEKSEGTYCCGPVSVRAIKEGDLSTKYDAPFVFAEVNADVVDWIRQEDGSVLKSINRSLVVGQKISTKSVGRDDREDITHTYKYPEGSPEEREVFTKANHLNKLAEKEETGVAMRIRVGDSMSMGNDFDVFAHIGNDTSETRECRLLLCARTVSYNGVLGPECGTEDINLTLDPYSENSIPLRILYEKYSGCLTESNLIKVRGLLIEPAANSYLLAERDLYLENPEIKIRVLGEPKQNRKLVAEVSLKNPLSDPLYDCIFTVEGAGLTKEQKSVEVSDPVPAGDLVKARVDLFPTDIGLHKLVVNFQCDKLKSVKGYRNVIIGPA
Kind of assay: western blot and ELISA. (In general: In western blotting, separated proteins are transferred to a membrane and probed.)

B1: AB1 murine monoclonal antibody (antibody, V domains shown)
VH: EVQLVESGGGLVKPGGSLKLSCAASGFTLSSSAMSWVRQTPDRRLEWVATISVGGGKTYYPDSVKGRFTISRDNAKNTLYLQMNSLRSEDTAMYYCAKLISLYWGQGTTLTVSS
VL: DIKMTQSPSSMYASLGERVTITCKASQDINSYLTWFQQKPGKSPKTLIYRTNRLFDGVPSRFSGSGSGQDFFLTISSLEYEDMGIYYCLQYDDFPYTFGGGTKLEIK
notes: Mouse hybridoma IgG; heavy chain amplified with constant region primer MHCG1, kappa light chain; also called mAB003
For B1, the “IC50 of TG2 activity, 3H putrescine incorporation” value (“IC50 of TG2 activity” below) in assay [1] amounted to 1.09e-05 mg/ml IgG per ng TG2. Besides, in assay [2], the binding result is “no binding”.

B2: BB7 murine monoclonal antibody (antibody, V domains shown)
VH: AVQLVESGGGLVKPGGSLKLSCAASGIIFSSSAMSWVRQTPEKRLEWVATISSGGRSTYYPDSVKGRFTVSRDSAKNTLYLQMDSLRSEDTAIYYCAKLISPYWGQGTTLTVSS
VL: AIKMTQSPSSMYASLGERVIITCKASQDINSYLTWFQQKPGKSPKTLIYLTNRLMDGVPSRFSGSGSGQEFLLTISGLEHEDMGIYYCLQYVDFPYTFGGGTKLEIK
notes: Mouse hybridoma IgG; heavy chain amplified with primer MHCG1, kappa light chain; also called mBB001
For the molecule B2, the binding result in assay [3] was “binds”; in assay [2] it was “no binding”. In assay [1], the “IC50 of TG2 activity” value was 1.59e-05 mg/ml IgG per ng TG2.

B3: DC1 murine monoclonal antibody (antibody, V domains shown)
VH: EVQLVESGGGLVKPGGSLKLSCAASGFTLSTHAMSWVRQTPEKRLEWVATISSGGRSTYYPDSVKGRFTISRDNVKNTLYLQLSSLRSEDTAVYFCARLISTYWGQGTTLTVSS
VL: DITMTQSPSSIYASLGERVTITCKASQDINSYLTWFQQKPGKSPKILIYLVNRLVDGVPSRFSGSGSGQDYALTISSLEYEDMGIYYCLQYDDFPYTFGGGTKLEIK
notes: Mouse hybridoma IgG; heavy chain amplified with primer MHCG1, kappa light chain; also called mDC001
For B3, the binding result in assay [3] is “binds”. The “IC50 of TG2 activity” value in assay [1] stood at 1.23e-05 mg/ml IgG per ng TG2.

B4: DH2 murine monoclonal antibody (antibody, V domains shown)
VH: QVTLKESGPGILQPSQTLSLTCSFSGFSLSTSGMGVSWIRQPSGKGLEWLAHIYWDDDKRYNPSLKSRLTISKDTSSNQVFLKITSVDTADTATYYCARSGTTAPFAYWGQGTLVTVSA
VL: QIVLTQSPAIMSASPGEKVTMTCSASSSVSYMYWYQQKPGSSPRLLIYDTSNLASGVPVRFSGSGSGTSYSLTISRMEAEDAATFYCQQWSSSPLTFGAGTKLELK
notes: Mouse hybridoma IgG; heavy chain amplified with primer MHCG2B, kappa light chain; also called mDH001
As to B4, the binding result was “binds” in assay [3] and “no binding” in assay [2]. Further, the “IC50 of TG2 activity” value in assay [1] was 6.7e-05 mg/ml IgG per ng TG2.

B5: DD9 murine monoclonal antibody (antibody, V domains shown)
VH: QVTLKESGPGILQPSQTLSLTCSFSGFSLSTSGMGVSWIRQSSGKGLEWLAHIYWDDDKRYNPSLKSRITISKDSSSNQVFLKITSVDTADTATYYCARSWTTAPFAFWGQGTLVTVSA
VL: QIVLTQSPAIMSASPGEKVTMTCSASSSVDYMYWYQQKPGSSPRLLIYDTSNLASGVPVRFSGSGSGTSYSLTISRMGAEDAATYYCQQWNSSPLTFGAGTKLELK
notes: Mouse hybridoma IgG; heavy chain amplified with primer MHCG2A, kappa light chain; also called mDD9001
Consider B5, for which the results for the binding result in assay [3] and in assay [2] were “binds” and “no binding”, respectively. Besides, the “IC50 of TG2 activity” value in assay [1] came out at 5.24e-05 mg/ml IgG per ng TG2.

B6: AG9 murine monoclonal antibody (antibody, V domains shown)
VH: EVQLQQSGPELVKPGASVKMSCRASGYTFTTYVIHWVKQKPGQGLEWIGYINPYNDGARYNEKFKGKATLTSDKSSTTAYMELSSLTSEDSAVYYCARLSSDYWGQGTTLTVSS
VL: DVLMTQNPLSLPVSLGDQASISCRSSRSIEHSNGNTYLEWYLQKPGQSPKFLIYKVSNRFSGVPDRFSGSGSGTDFTLRISSVEAEDLGVYYCFQGSHVPFTFGGGTKLEIK
notes: Mouse hybridoma IgG; heavy chain amplified with primer MHCG1, kappa light chain
On to B6, for which, in assay [1], the “IC50 of TG2 activity” value worked out at 4.87e-05 mg/ml IgG per ng TG2. In addition, the binding result in assay [2] is listed as “no binding”.

B7: EH6 murine monoclonal antibody (antibody, V domains shown)
VH: EVQLQQSGPELVKPGASVKMSCKASGYTFTSYVMHWVKQKPGQGLEWIGFINPYNDGTKYNEKFKGKATLTSDKASTTAYMELSSLTSEDSAVYYCARFSSGYWGQGTTLTVSS
VL: DVLMTQTPLSLPVSLGDQASISCRSSQSIVHSNGNTYLEWYLQKPGQSPKLLIYKVSNRFSGVPDRFSGSGSGTDFTLKISRVGAEDLGVYYCLQVSHVPFTFGSGTKLEIK
notes: Mouse hybridoma IgG; heavy chain amplified with primer MHCG2B, kappa light chain
Take B7: the values for the binding result in assay [3] and in assay [2] were “binds” and “no binding”, respectively. Further, the “IC50 of TG2 activity” value in assay [1] turned out to be 6.9e-05 mg/ml IgG per ng TG2.

B8: AH3 murine monoclonal antibody (antibody, V domains shown)
VH: EVQLQQSGPELVKPGASVKMSCRASGYTFTTYVIHWVKQKPGQGLEWIGYINPYNDGARYNEKFKGKATLTSDKSSTTAYMELSSLTSEDSAVYYCARLSSDYWGQGTTLTVSS
VL: DVLMTQNPLSLPVSLGDQASISCRSSRSIEHSNGNTYLEWYLQKPGQSPKFLIYKVSNRFSGVPDRFSGSGSGTDFTLRISSVEAEDLGVYYCFQGSHVPFTFGGGTKLEIK
notes: as for B7
Consider B8, for which the “IC50 of TG2 activity” value in assay [1] turned out to be 7.8e-05 mg/ml IgG per ng TG2. For the same molecule, the binding result in assay [2] is on record as “no binding”.

B9: JE12 murine monoclonal antibody (antibody, V domains shown)
VH: EVQLQQSGPELVKPGASVKMSCKASGYRFTSYVMHWVKQKSGQGLEWIGYINPYNDGAKYNEKFKGKATLTSDKSSSTAYMELSSLTSEDSAVYYCARLSSDYWGQGTTLTVSS
VL: DVLMTQNPLSLPVSLGDQASISCRSSQSIEHINGNTYLEWYLQKPGQSPKFLIYKVSNRFSGVPDRFSGSGSGTDFTLRISRVEAEDLGIYYCFQGSHVPFTFGGGTKLEIK
notes: as for B6
For B9, the figures for the binding result in assay [3] and in assay [2] were “binds” and “no binding”, respectively.
